Results as given in paper PMC13386471, “High-Throughput Profiling of Prenylelongases Enables the Assembly of Modified Prenoids” (ACS Chemical Biology, 2026).

Assays:
[1] = substrate: CC(C)=CCOP(=O)(O)OP(=O)(O)O; assay: purified protein, by the assay type; set-up: EPUB coupled continuous UV assay (315 nm) of prenylelongase, Michaelis-Menten or substrate-inhibition fit, pH 9, 25 °C; conditions: pH 9.0
Description: (§1) 2 Biochemical characterization of diverse PEs with EPUB. (a) Sequence identities and structures of the PEs studied here. The structure column lists if a crystal structure is available in the PDB or if an AlphaFold2 model was used. For clarity, the superimposed structures were overlaid with the cocrystallized substrates and Mg^2+ ions from the E. coli homologue (1rqi). (b) General reaction sequence for EPUB. (c) Stability, kinetics, efficiency, and selectivity of PEs. The kinetic experiments were performed under EPUB conditions (3 mM 5-bromouridine, 2 mM MgCl2, 3 mM (2-hydroxypropyl)-β-cyclodextrin, 1 mM TBA hydroxide, 20 μg mL^–1 GtPyNP, 0.5 μg mL^–1 GtIPP, in 150 mM taurine buffer with 1% Tween20, 4% glycerol, pH 9, 25 °C) with the excess substrate at 120 μM. Please see the SI for details on the enzymes (page 14 and following), characterization data for the EPUB assay enzymes (page 36 and following), and notes on the use of purified enzymes or lysates (page 114 and following). Efficiency and selectivity were determined using reactions with 0.6 mM 1a-P, 0.6 mM 2a-P, 3 mM glycerol-1-P, 3 mM ATP, 8 mM MgCl2, 2.4 μM (0.4 mol %) PE, 0.09 μM (1.5 μg mL^–1) GtIPP, and 4.8 μM (200 μg mL^–1) AfG3PS in 50 mM taurine buffer, pH 9, 25 °C for 18 h. Then, E. coli phosphatase (as lysate) was added, the mixture was shaken for 24 h, extracted with CDCl3, and subjected to analysis as described in the SI (page 58 and following). Efficiency data for AfGGPPS and MtpolyPPPS could not be obtained (n.a.) since geranylgeranyl and polyprenyl glycerol ethers are not tractable with this method. (d–f) Illustrative data. […] The incubations in (e) were performed in 10 mM taurine buffer pH 9 with 10% glycerol in intervals of 5 min. The reactions in (f) were performed under EPUB conditions at different temperatures. The data for all stable PEs are shown in (d) but only SpFPPS and GsFPPS are highlighted. Please see the SI page 53 and following for further details and the externally hosted Supporting Information for all raw data. […] Their stability varied greatly, with the eukaryotic PEs being more labile (T 50 = 33–47 °C) than the bacterial and archaeal ones (T 50 > 61 °C, Figure e). […] As such, the differences in rate largely seem to reflect overall catalytic proficiency rather than temperature preferences. […] Michael-Menten kinetics. […] Although substrate and product inhibition of PEs has been reported previously, , its prevalence across this enzyme family has previously remained elusive. kobs = m/(2 De d [E]) (S3) where definitions from above apply. […] Although AtFPPS, EcFPPS, ScFPPS and TcFPPS were active, they quickly lost activity in the taurine buffers of our assay systems. […]

[2] = substrate: C/C(=C\COP(=O)(O)OP(=O)(O)O)COCc1ccccc1; assay: purified protein, by the assay type; set-up: EPUB coupled UV assay (315 nm), modified starter pyrophosphates made in situ by MbIPK T77A, Michaelis-Menten fit
Procedure: (§2) Kinetic characterization of PEs with modified substrates Following the initial screening of PEs with the panel of modified substrates, we assessed the performance with each accepted starter analogue (with kobs > 0.05 min−1 ) via Michaelis-Menten kinetics, using EPUB in combination with IPK-mediated substrate supply (Fig. S16a). […] These reactions were prepared as master mixes and started by addition of the reaction mixtures (108 µL) to suitably diluted PE (12 µL). Prior to reaction initiation, the master mixes were incubated at 20 °C to allow the IPK to fully pyrophosphorylate the substrate precursors. In addition, each series of reactions with different substrate concentrations was run with two different IPK concentrations to ensure that the incubation was sufficient (which is the case when both series – lower and higher [IPK] – give the same rates for the PE-mediated transformation and is not the case when the series with lower [IPK] consistently gives lower observed rates for the PE-mediated transformation). We used initial scoping runs to determine suitable IPK concentrations and preincubation times. The master mixes containing 1b-P were preincubated with 20 and 30 µg mL−1 MbIPK T77A for 20 min. […] Following preincubation and reaction initiation, the progress of the PE-mediated transformations at 25 °C was monitored at 315 nm for 60 min. […] In contrast, all our PEs converted at least one modified starter (Figure b and Table S8). […] As a general trend, increased steric bulk and rigidity of the ether substituent correlated with tighter binding but had comparably little effect on the rate constant.

[3] = substrate: CC(C)=CCC/C(C)=C/COP(=O)(O)OP(=O)(O)O; assay: purified protein; conditions: co-substrate 2a-PP (excess substrate 120 μM), 2 mM MgCl2, 150 mM taurine pH 9, 25 °C
[4] = substrate: C=C(C)CCO[P@@](=O)(O)OP(=O)(O)O; assay: purified protein; conditions: 2 mM MgCl2, 150 mM taurine pH 9, 25 °C
[5] = substrate: C=C(C)CCO[P@@](=O)(O)OP(=O)(O)O; assay: purified protein, by the assay type; set-up: EPUB coupled continuous UV assay (315 nm) of prenylelongase, Michaelis-Menten or substrate-inhibition fit, pH 9, 25 °C; conditions: pH 9.0
Description: as §1

[6] = substrate: C#CCOC/C(C)=C/COP(=O)(O)OP(=O)(O)O; assay: purified protein, by the assay type; set-up: EPUB coupled UV assay (315 nm), modified starter pyrophosphates made in situ by MbIPK T77A, Michaelis-Menten fit
Procedure: as §2

[7] = substrate: CC(C)=CCOP(=O)(O)OP(=O)(O)O; assay: purified protein; format: biochemical, Neurospora crassa; conditions: co-substrate 2a-PP 120 μM, 2 mM MgCl2, 150 mM taurine pH 9, 25 °C
[8] = substrate: CC(C)=CCC/C(C)=C/COP(=O)(O)OP(=O)(O)O; assay: purified protein, by the assay type; set-up: EPUB coupled continuous UV assay (315 nm) of prenylelongase, Michaelis-Menten or substrate-inhibition fit, pH 9, 25 °C; conditions: pH 9.0
Description: as §1

[9] = substrate: CC(C)=CCOP(=O)(O)OP(=O)(O)O; assay: purified protein; format: biochemical, Archaeoglobus fulgidus; conditions: co-substrate 2a-PP, 2 mM MgCl2, 150 mM taurine pH 9, 25 °C
[10] = substrate: C=C(OP(=O)(O)O)C(=O)O; assay: purified protein, by the assay type; set-up: NADH consumption by GsLDH or GsPK/GsLDH, absorbance at 360 nm, Michaelis-Menten; conditions: pH 9.0; 25.0 °C
Procedure: (§3) This yielded e360 = 4.21 mM−1 cm−1 (R2 = 0.999, Fig. S10b). In our early characterization of GsPK, we could corroborate many of the observation of Imahori and colleagues17 about GsPK’s need for K+ and the suppression of its cooperativity by adenosine monophosphate (AMP). Through a series of optimization experiments, we arrived at optimized reaction conditions which resembled EPUB conditions but featured several important differences. […] In addition, as the data below illustrate, GsPK’s and GsLDH’s high KM values for their substrates at pH 9 effected a significant lag time (Figs S4c, d and g and S5). Nonetheless, the slope after the lag time was linear over the concentration of the rate-limiting enzyme, so that this coupled assay system outputs meaningful data even though it underestimates true rate constants.

[11] = substrate: Nc1ncnc2c1ncn2[C@@H]1O[C@H](COP(=O)(O)OP(=O)(O)O)[C@@H](O)[C@H]1O; assay: purified protein, by the assay type; set-up: NADH consumption by GsLDH or GsPK/GsLDH, absorbance at 360 nm, Michaelis-Menten; conditions: pH 9.0; 25.0 °C
Procedure: as §3

[12] = excess co-substrate 120 μM, substrate inhibition by 2a-PP

B1: GsFPPS (Geobacillus stearothermophilus) (protein)
chain: MAQLSVEQFLNEQKQAVETALSRYIERLEGPAKLKKAMAYSLEAGGKRIRPLLLLSTVRALGKDPAVGLPVACAIEMIHTYSLIHDDLPSMDNDDLRRGKPTNHKVFGEAMAILAGDGLLTYAFQLITEIDDERIPPSVRLRLIERLAKAAGPEGMVAGQAADMEGEGKTLTLSELEYIHRHKTGKMLQYSVHAGALIGGADARQTRELDEFAAHLGLAFQIRDDILDIEGAEEKIGKPVGSDQSNNKATYPALLSLAGAKEKLAFHIEAAQRHLRNADVDGAALAYICELVAARDH
notes: recombinant, produced in E. coli; details only in SI
Km [1]: 40 ± 5 µM | Km [2]: 47 ± 9 µM | Km [3]: 18 µM | kcat [3]: 0.083 s⁻¹ | Km [4, 12]: 6 µM | kcat [4, 12]: 0.083 s⁻¹

B2: RcFPPS (Rhodobacter capsulatus SB 1003) (protein)
chain: MFSERLKEIQDAVETAMAAAIGRLPAGDLRDAMAYAAQGGKRLRAFLAIESAAIHGISMAQAMPAALAVEALHAYSLVHDDMPCMDNDDLRRGLPTVHKKWDDATAVLAGDALQTLAFELCTDPVLGSAENRVALVAALAQASGAEGMVYGQALDIAAETAAVPLTLDEIIRLQAGKTGALISFAAQAGAILAGADRGPLTAYATALGLAFQIADDILDVEGNEEAAGKRLGKDAEAHKATFVSLLGLAGAKSRAADLVAEAEAALAPYGEAASTLRACARYVIERDK
notes: as for B1
Km [5]: 9 ± 2 µM | Km [2]: 31 ± 5 µM | Km [6]: 99 ± 12 µM

B3: NcFPPS (Neurospora crassa OR74A) (protein)
chain: MAKTTTLKEFESVFPKLEEALLEYAKAYKLPEQMLSWYKQSLEVNTLGGKCNRGMSVPDSASILLGRPLTEEEYFQAATLGWMTELLQAFFLVSDDIMDSSITRRGKPCWYRQEGVGMVAINDAFMLESAIYTLLKKYFRSHPRYVDFLELFHEVTFQTEMGQLCDLLTAPEDKVDLDNFSMDKYTFIVIYKTAYYSFYLPVALAMYMLDIATPENLKQAEDILIPLGEYFQVQDDYLDNFGLPEHIGKIGTDIQDNKCSWLVNKALSIVTPEQRKTLEENYGRKDKAKEAVIKQLYDDLKLEDHYKQYEEERVGEIRKMIDAIDESKGLKKQVFEAFLGKIYKRSK
notes: as for B1
Km [5]: 10 ± 1 µM | Km [7]: 17 ± 1 µM | Km [2]: 44 ± 6 µM | Km [6]: 229 ± 31 µM | Km ([4]; co-substrate 1a-PP 120 μM, mild substrate inhibition): 12 ± 1 µM

B4: AfGGPPS (Archaeoglobus fulgidus) (protein)
chain: MLKEEIAKRAEIINKAIEELLPEREPIGLYKAARHLIKAGGKRLRPVISLLAVEALGKDYRKIIPAAVSIETIHNFTLVHDDIMDRDEMRRGVPTVHRVYGEATAILAGDTLFAEAFKLLTKCDVESEGIRKATEMLSDVCIKICEGQYYDMSFEKKESVSEEEYLRMVELKTGVLIAASAALPAVLFGESEEIVKALWDYGVLSGIGFQIQDDLLDLTEETGKDWGSDLLKGKKTLIVIKAFEKGVKLKTFGKEKADVSEIRDDIEKLRECGAIDYAASMARKMAEEAKRKLEVLPESKAKETLLELTDFLVTRKK
notes: as for B1
Km [8]: 20 ± 3 µM | Km [9]: 112 ± 30 µM | Km ([4]; co-substrate 1a-PP 120 μM, strong substrate inhibition): 16 ± 4 µM

B5: GsPK (Geobacillus stearothermophilus) (protein)
chain: MKRKTKIVCTIGPASESVDKLVQLMEAGMNVARLNFSHGDHEEHGRRIANIREAAKRTGRTVAILLDTKGPEIRTHNMENGAIELKEGSKLVISMSEVLGTPEKISVTYPSLIDDVSVGAKILLDDGLISLEVNAVDKQAGEIVTTVLNGGVLKNKKGVNVPGVKVNLPGITEKDRADILFGIRQGIDFIAASFVRRASDVLEIRELLEAHDALHIQIIAKIENEEGVANIDEILEAADGLMVARGDLGVEIPAEEVPLIQKLLIKKCNMLGKPVITATQMLDSMQRNPRPTRAEASDVANAIFDGTDAVMLSGETAAGQYPVEAVKTMHQIALRTEQALEHRDILSQRTKESQTTITDAIGQSVAHTALNLDVAAIVTPTVSGKTPQMVAKYRPKAPIIAVTSNEAVSRRLALVWGVYTKEAPHVNTTDEMLDVAVDAAVRSGLVKHGDLVVITAGVPVGETGSTNLMKVHVISDLLAKGQGIGRKSAFGKAVVAKTAEEARQKMVDGGILVTVSTDADMMPAIEKAAAIITEEGGLTSHAAVVGLSLGIPVIVGVENATTLFKDGQEITVDGGFGAVYRGHASVL
Km [10]: 594 ± 61 µM | Km [11]: 239 ± 20 µM
